From patent US20160251438A1 (LUDWIG INSTITUTE FOR CANCER RESEARCH, published 2016)

Key:
Assay in all cases: flow cytometry on transfected 293T cells, 5 ug/ml; grade of Loss of binding read by footnote 2
[1] = target: GARP G139N / TGF-β1 complex (human, UniProt Q14392 20-662; P01137 30-390)
Source text: (§1) Resolution of the crystal structure of MHG-8 Fab/GARP/TGF-β1 complexes and analysis with the CONTACT software allowed the identification of 22 amino-acids in GARP, 8 amino-acids in LAP and 6 amino-acids in mature TGF-β1 that are located less than 5 Å away from an amino-acid of the light or heavy chain of the MHG-8 Fab (Tables 7a, b and c, and Table 8). Directed mutagenesis was used to construct plasmids encoding HA-tagged forms of GARP or TGF-β1 that are mutated at one, two, or three of these 36 positions (all mutations constructed are indicated in Table 8). […] Antibodies were used at a saturating concentration of 5 μg/ml for labeling. Binding of each antibody to a given mutant GARP/TGF-β1 complex was compared to their binding to wild type (WT) complexes, by determining an I_{m/wt} value (i.e. intensity of binding to mutant by comparison to WT). This value was calculated as follows: I_{m/wt} of antibody X=[Geom on mutant−Geom on control]/[Geom on WT−Geom on control]
(§2) The level of residual binding of anti-GARP or anti-LAP antibodies to each mutant was then calculated by comparison to WT, taking into account the expression levels of mutant and WT forms as measured with anti-HA antibodies. Residual binding was calculated as follows: Residual binding by an anti-GARP or anti-LAP antibody=[I_{m/wt} with anti-GARP or anti-LAP antibody]/[I_{m/wt} with anti-HA antibody]

[2] = target: GARP A114R / TGF-β1 complex (human, UniProt Q14392 20-662; P01137 30-390)
Source text: as §1, §2

[3] = target: GARP / TGF-β1 K338E complex (human, UniProt Q14392 20-662; P01137 30-390)
Source text: as §1, §2

[4] = target: GARP T165A / TGF-β1 complex (human, UniProt Q14392 20-662; P01137 30-390)
Source text: as §1, §2

[5] = target: GARP / TGF-β1 A341Y complex (human, UniProt Q14392 20-662; P01137 30-390)
Source text: as §1, §2

[6] = target: GARP / TGF-β1 H270Y complex (human, UniProt Q14392 20-662; P01137 30-390)
Source text: as §1, §2

[7] = target: GARP R163E / TGF-β1 complex (human, UniProt Q14392 20-662; P01137 30-390)
Source text: as §1, §2

[8] = target: GARP S116N / TGF-β1 complex (human, UniProt Q14392 20-662; P01137 30-390)
Source text: as §1, §2

[9] = target: GARP A117R / TGF-β1 complex (human, UniProt Q14392 20-662; P01137 30-390)
Source text: as §1, §2

[10] = target: GARP G118L/G119L / TGF-β1 complex (human, UniProt Q14392 20-662; P01137 30-390)
Source text: as §1, §2

[11] = target: GARP M111T/A112G/T113M / TGF-β1 complex (human, UniProt Q14392 20-662; P01137 30-390)
Source text: as §1, §2

[12] = target: GARP / TGF-β1 L271R/Q272Y/S273W complex (human, UniProt Q14392 20-662; P01137 30-390)
Source text: as §1, §2

[13] = target: GARP Y137H/S138G/G139N / TGF-β1 complex (human, UniProt Q14392 20-662; P01137 30-390)
Source text: as §1, §2

[14] = target: GARP / TGF-β1 Q345A complex (human, UniProt Q14392 20-662; P01137 30-390)
Source text: as §1, §2

[15] = target: GARP / TGF-β1 Y284A complex (human, UniProt Q14392 20-662; P01137 30-390)
Source text: as §1, §2

[16] = target: GARP / TGF-β1 R58A complex (human, UniProt Q14392 20-662; P01137 30-390)
Source text: as §1, §2

[17] = target: GARP / TGF-β1 Q269Y complex (human, UniProt Q14392 20-662; P01137 30-390)
Source text: as §1, §2

GARP A117R / TGF-β1 complex, sequence (Q14392 20-662 A117R limits assumed, chain 1 of 2): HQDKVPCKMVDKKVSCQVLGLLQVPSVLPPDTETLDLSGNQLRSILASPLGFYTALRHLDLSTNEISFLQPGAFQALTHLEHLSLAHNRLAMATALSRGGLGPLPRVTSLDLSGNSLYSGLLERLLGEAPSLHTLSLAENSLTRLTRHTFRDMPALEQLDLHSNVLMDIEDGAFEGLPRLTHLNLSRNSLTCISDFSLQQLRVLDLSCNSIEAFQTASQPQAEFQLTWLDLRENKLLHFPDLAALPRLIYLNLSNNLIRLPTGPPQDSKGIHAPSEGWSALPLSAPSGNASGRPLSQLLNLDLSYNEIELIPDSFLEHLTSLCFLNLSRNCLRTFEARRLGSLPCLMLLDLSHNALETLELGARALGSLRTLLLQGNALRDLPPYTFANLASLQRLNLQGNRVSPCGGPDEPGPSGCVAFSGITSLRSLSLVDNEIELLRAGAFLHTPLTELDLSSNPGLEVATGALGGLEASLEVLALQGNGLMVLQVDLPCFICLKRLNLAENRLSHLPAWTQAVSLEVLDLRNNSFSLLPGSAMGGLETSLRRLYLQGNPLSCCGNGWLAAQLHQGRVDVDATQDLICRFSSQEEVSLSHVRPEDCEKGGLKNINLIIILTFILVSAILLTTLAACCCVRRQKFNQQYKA
GARP A117R / TGF-β1 complex, sequence (P01137 30-390 limits assumed, chain 2 of 2): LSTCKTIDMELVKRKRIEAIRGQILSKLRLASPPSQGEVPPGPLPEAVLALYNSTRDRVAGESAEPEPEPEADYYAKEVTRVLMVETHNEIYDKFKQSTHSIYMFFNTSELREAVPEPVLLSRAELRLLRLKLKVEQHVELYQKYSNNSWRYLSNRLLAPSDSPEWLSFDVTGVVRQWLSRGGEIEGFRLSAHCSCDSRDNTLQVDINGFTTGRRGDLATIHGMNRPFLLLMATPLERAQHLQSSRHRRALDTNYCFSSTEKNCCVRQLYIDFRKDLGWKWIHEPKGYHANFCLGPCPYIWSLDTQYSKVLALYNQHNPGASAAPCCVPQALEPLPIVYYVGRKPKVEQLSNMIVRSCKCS
GARP M111T/A112G/T113M / TGF-β1 complex, sequence (Q14392 20-662 M111T/A112G/T113M limits assumed, chain 1 of 2): as the sequence (Q14392 20-662 A117R limits assumed, chain 1 of 2) above, with M92T, A93G, T94M, R98A counted along it
GARP M111T/A112G/T113M / TGF-β1 complex, sequence (P01137 30-390 limits assumed, chain 2 of 2): as the sequence (P01137 30-390 limits assumed, chain 2 of 2) above
GARP Y137H/S138G/G139N / TGF-β1 complex, sequence (Q14392 20-662 Y137H/S138G/G139N limits assumed, chain 1 of 2): as the sequence (Q14392 20-662 A117R limits assumed, chain 1 of 2) above, with R98A, Y118H, S119G, G120N counted along it
GARP Y137H/S138G/G139N / TGF-β1 complex, sequence (P01137 30-390 limits assumed, stated change not applied, chain 2 of 2): as the sequence (P01137 30-390 limits assumed, chain 2 of 2) above
GARP S116N / TGF-β1 complex, sequence (Q14392 20-662 S116N limits assumed, chain 1 of 2): as the sequence (Q14392 20-662 A117R limits assumed, chain 1 of 2) above, with S97N, R98A counted along it
GARP S116N / TGF-β1 complex, sequence (P01137 30-390 limits assumed, chain 2 of 2): as the sequence (P01137 30-390 limits assumed, chain 2 of 2) above

- residual binding on mutant by comparison to WT [1]: ≥ 50%
- residual binding on mutant by comparison to WT [2]: ≥ 50%
- residual binding on mutant by comparison to WT [3]: < 50%
- residual binding on mutant by comparison to WT [4]: ≥ 50%
- residual binding on mutant by comparison to WT [5]: ≥ 50%
- residual binding on mutant by comparison to WT [6]: ≥ 50%
- residual binding on mutant by comparison to WT [7]: < 50%
- residual binding on mutant by comparison to WT [8]: ≥ 50%
- residual binding on mutant by comparison to WT [9]: ≥ 50%
- residual binding on mutant by comparison to WT [10]: ≥ 50%
- residual binding on mutant by comparison to WT [11]: ≥ 50%
- residual binding on mutant by comparison to WT [12]: ≥ 50%
- residual binding on mutant by comparison to WT [13]: < 50%
- residual binding on mutant by comparison to WT [14]: ≥ 50%
- residual binding on mutant by comparison to WT [15]: ≥ 50%
- residual binding on mutant by comparison to WT [16]: ≥ 50%
- residual binding on mutant by comparison to WT [17]: ≥ 50%
B1: LHG-10 (antibody, human IgG1, V domains shown)
VH: EVQLVQPGAELRNSGASVKVSCKASGYRFTSYYIDWVRQAPGQGLEWMGRIDPEDGGTKYAQKFQGRVTFTADTSTSTAYVELSSLRSEDTAVYYCARNEWETVVVGDLMYEYEYWGQGTQVTVSS
VL: DIQMTQSPTSLSASLGDRVTITCQASQSISSYLAWYQQKPGQAPKLLIYGASRLQTGVPSRFSGSGSGTSFTLTISGLEAEDAGTYYCQQYDSLPVTFGQGTKVELK
notes: llama-derived V regions in a full human IgG1
